Test results taken from the nanobody polyreactivity screen of Harvey et al. (2022).

Assay: yeast display, Sf9 membrane polyspecificity reagent, FACS + sequencing; frameworks hold sequencing errors
Procedure, shortened: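 Nanobodies came from a synthetic yeast display library in Saccharomyces cerevisiae BJ5465, induced with galactose for 36–48 hours and stained for 1 hour at 4 °C with 10% biotinylated, detergent-solubilized Sf9 membrane reagent. Cells were enriched on streptavidin microbeads and then FACS-sorted, with low and high (top ~1%) gates set on anti-HA fluorescence for expression and streptavidin fluorescence for reagent binding. Each polyreactivity label reflects the gate a clone came from. Genes were amplified by colony PCR, sequenced by MiSeq 2 × 250 and filtered by CDR length.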
With “QDQLEESGGGLVQAGGSLRLSCASSGRIFAGYAMGWYRQAPGKERELVAAISGSGGSTYYADSVKGRFTISRDNAKNTVYLQMNSLKPEDTAVFYCNAGKTSRFQYDYWGQGTQVTVSS” the “polyreactivity (PSR sort gate)” value was “high polyreactivity”.
In the case of “QDQLEESGGGLVQAGGSLRLSCSASGSIFRRNAMGWYRQAPGKERELVAGITRSTGDTYYADSVKGRFTISRDNAKNTVYLQMNSMKPEDTAVYYCAACGSYYRDDYWGQGTQVTVSS”, the “polyreactivity (PSR sort gate)” value is reported as “low polyreactivity”.
With “QDQLGDSGGCLVQAGGSLRLSCAASGITFKNYAMVWYRQAPGKEREIVAAISASGGRTYYADSVKGRFTISRDNAKNTVYFPMNSLIPEDTAVYYCNAVYIGSRSRYEYDYWGQGSQVTVSS” the “polyreactivity (PSR sort gate)” value was “high polyreactivity”.
For “QDQLGDSGGGLLQAGGSLRLSCAASGQIYFDNMGWYRQAPGKEREMVAAISSSGASTSYADSVKGRFTISRDNAKNTVYLQIYSLNPEDTAVYYCAADSYPAYLGFVGFDYWGQGTQVTVSS”, the “polyreactivity (PSR sort gate)” value was “low polyreactivity”.
For “QDQLGESGGGLVQAGGRLRLSCAASGFIIWNYGMGWYRQPPGKERELVAAISSGGTITKYADSVKGRFTISRDNAKNTVYLQMNSLKPEDTAVYYWAARWGVRAGYATFDYWGQGTQVTVSS”, the “polyreactivity (PSR sort gate)” value was “high polyreactivity”.
For “QDQLGESGGGLVQAGGSLRLSGAASGSTFSRNAMGWYRQAPGKERELVAAISRSGGSTHYADSVKGRFTISRDNAKNTVYLQMNSQKPEDTAVYYCAARVPRGDLPGYHYAYYYWGQGTQVTVSS”, the “polyreactivity (PSR sort gate)” value was “high polyreactivity”.
In the case of “QDQLGESGGGVVQAGGSLRLSCAAYGRTLHYYAMGWYRQAPGKERELVAGIRDSGGSTYYADSVKGRFTISRDNEMNTVYFLMNSLKPEDTAVYYCAARSHRRLMYYWGQGTQVNVSS”, the “polyreactivity (PSR sort gate)” value is reported as “high polyreactivity”.
For “QDQLVDSGGGLVQAGGSLRLSCAASGRIIFYYTMGSYSQAPGKESELVAAINSTGSTNYADSVKGRFTISRDNAKNTVYLQMNSLKPEDTAVYYCNAGTRYIFLYPPFLGAAFDYWGQGTQVTVSS”, the “polyreactivity (PSR sort gate)” value was “low polyreactivity”.
In the case of “QDQLVDSGGGLVQAGGSLRLSCAASGSIFPIYAMGGYRQAPGKERELVAAIDWGDGSTSYADSVKGRFTISRDNAKNTVYLQMNSLKPEDTAVYYCAARSVFDLVYYNLIFDYWGQGTQVTVSS”, the “polyreactivity (PSR sort gate)” value is reported as “high polyreactivity”.
With “QDQLVDSGGGLVQAGGSLRLSSSDSGSIFRYYTMGWYRQSPGKERELVARISSSRSTNYADSVKGRFTISRDNAKNTVYLQMNSLKPEDTEVYYCAARAFSWAGFYYWGQGTQVTVSS” the “polyreactivity (PSR sort gate)” value was “low polyreactivity”.
For “QDQLVDSGGRLVQGGGSLRLSCAASGYIFIWYDMGWYRQAPGKERELVAAISGSGGYTYYADSVKGRFTISRDNAKNTVFLQMNSLKPEDTAVYYCAAYVARGNSEVIAMDYWGQGTQVTVSS”, the “polyreactivity (PSR sort gate)” value was “low polyreactivity”.
In the case of “QDQLVDSGVCLVQARGSLRLSCAASGRIFDAYTMGWYRQAPGKESELVASITGRDGSTYYADSVKGRFTISRDNAKNTVYLQMNSLKPEDTAVDYCNAKYSSFGIRYNYWGQGTQVTVSS”, the “polyreactivity (PSR sort gate)” value is reported as “high polyreactivity”.
For “QDQLVESAAGLVQAGGSLRLSCAASGSTFATYAMGWYRKAPGKERELVAAITASGGRTFYADSVKGRFTLSRDNAKNTVYLQMNSLKPEDPAVYYCAKRGDYVPYTFDYWGQGTQVTVSS”, the “polyreactivity (PSR sort gate)” value was “high polyreactivity”.
In the case of “QDQLVESAGGIVQAGGRLRLSCAASGTLYINVMGWYRQSPGKERELVAAISSNGARTYYADSVKGRFTISRDNAKNTVYLQMNSLKPEDTAVYYCDASFYFYSLYGYWGQGTQVTVSS”, the “polyreactivity (PSR sort gate)” value is reported as “high polyreactivity”.
In the case of “QDQLVESAVGLVQAGGSLRLSCDASGSTFDFYDIGWYRQAPGKERELVATIRWSGDTTYYADSVKGRFTISRDNAKNTVYLQMTRLKPEDTAVYYCNADYFGQESWWMDYWGQGTQVTVSS”, the “polyreactivity (PSR sort gate)” value is reported as “low polyreactivity”.
In the case of “QDQLVESCGALLQAGGSLRLSCAASGITIDTYFMGRYRQAPGKETELLAAISNSDGSTYYADSVKGRFTISRDNAKHTVYLPMNSLKPEDTAVYYCNAQSYYSWHLRYDYWGQGTQVTVSS”, the “polyreactivity (PSR sort gate)” value is reported as “high polyreactivity”.
For “QDQLVESCGGLVQAGGSLRLSCAASGHIFIYYAMGWYRQAPWKERELVAVISGSGGRTYYADSVKGRFTISRDYAKNTVSLQMNSLKPEDTAVYYCAAAVRYYPHYDSWGQGTQVNVSS”, the “polyreactivity (PSR sort gate)” value was “low polyreactivity”.
For “QDQLVESGGALGQAGGSLRLSCAASGSIFFYYAMGCYRQAPGKEREFVAHITSSEASTHYADSVKGRFTISRDTAKNTVYLQMNSLIPEDTAVYYCAADRYPGHRERDFWGQGSQVTVSS”, the “polyreactivity (PSR sort gate)” value was “low polyreactivity”.
For “QDQLVESGGALVQAGGSLRLSCAASGFTFYKNAMGWYRQAPGKERELVAAISADGGRTYYADSVKGRFTISRDNAKNTVYLQMNSLKPEDTAVYYCAADKRLFRRPKTYDLWGQGTQVTVSS”, the “polyreactivity (PSR sort gate)” value was “high polyreactivity”.
With “QDQLVESGGALVQAGGSLRLSCAPSGGTFWIYAMGWYRQAPGKERELVAGITTSGATTYYADSVKGRFTISRDNAKNTVYLQMNSLKPVDTAVYYCAADEYYRYEYWGHGTQVTVSS” the “polyreactivity (PSR sort gate)” value was “low polyreactivity”.
In the case of “QDQLVESGGCLVQAGGSLRLSCAASGSIFTKYAMGWYRQAPGKERELVAAIDVNGGSTRYADSVKGRFTISRDNAKNTVYLQMNSLKPEDTAVYYCAKDYTASYYPQGLYDYWGQGTQVTVSS”, the “polyreactivity (PSR sort gate)” value is reported as “low polyreactivity”.
With “QDQLVESGGCLVQAGGSLRLSCAASGSTFRSNAMGWYRQAPGKERELVAAISRGGSTNYADSVKGRFTISRDNAKNTVYLQMNSLKTEDTAVYYCNADWDYRDFYDITYDYWGQGTQVTVSS” the “polyreactivity (PSR sort gate)” value was “low polyreactivity”.
In the case of “QDQLVESGGCLVQAGGSLRLSCADSGSNFWYYAMVWYRQAPGKERELVAAITSAGSTYYADSVKGRFTISRDNAKITVYLQINSLKPEDTAVYYCAKVKAWSEYYYWGQGTQVTVSS”, the “polyreactivity (PSR sort gate)” value is reported as “low polyreactivity”.
In the case of “QDQLVESGGGIVQAGGSLRLSCAASGFTFHNNVMGWNRQAPGKERELVATISKSGGSTYYADSVKGRFTISRDNAKNTVYLQMNSLKPEDTAVYYCAGRYRDYGRYGYWGQGTQVTVSS”, the “polyreactivity (PSR sort gate)” value is reported as “high polyreactivity”.
For “QDQLVESGGGIVQAGGSLRLSCAASGSTFDFNAMGWYRQAPGKERELVASISWETGGTYADSVKGRFTISRDNGKNTVYLQMKSLNPEDTAVYYCAARPDYFIFEYWGQGTQVTVSS”, the “polyreactivity (PSR sort gate)” value was “low polyreactivity”.
In the case of “QDQLVESGGGLDQAGGSLRLICAASGRIFIYYAMGWYRQAPGKETELVAAISSTGTTNYADSVKGRFTISRDNAKNTVYLQMTSLKPEDTAVYFCAARVRTATRRFTSYSWGQGTQVTVSS”, the “polyreactivity (PSR sort gate)” value is reported as “high polyreactivity”.
For “QDQLVESGGGLDQAGGSLRLSCAASGFTFIRYAMGWYRQAPGKERELVATITRSGGSTYYADSVKGRFTISRDHAKNTVYLQMNSLKPEDTAVYYCAKRGTLGSYYYWGQGTQVTVSS”, the “polyreactivity (PSR sort gate)” value was “high polyreactivity”.
For “QDQLVESGGGLDQAGGSLRLSCAASGRIFALNAMGWYRQAPGKERELVATIRWRGGSTYYADSVKGRFTISRDYAKNTVYLQMNSLKPEDTAVYYCASYSGNRRTYDYWGQGTQVTVSS”, the “polyreactivity (PSR sort gate)” value was “high polyreactivity”.
For “QDQLVESGGGLDQAGGSLRLSCAASGRIFDVYAMGWYRQAPGKERELVAAISWSGSSTYYADSVKGRFTISRDNAKNTVYLQMNSLKPEDTAVYSCATVLRVTRVDYWGQGTQVTVSS”, the “polyreactivity (PSR sort gate)” value was “high polyreactivity”.
For “QDQLVESGGGLDQEGGSLRLSCAASGIFSYEAMGWNRQAPGKERELVATISRRGSSTYYADSVKGRFTISRDNAKNTVYLQMNSLKPEDSAVYYCAAVRYISPAFLPASSYELGYWGQGSQVTVSS”, the “polyreactivity (PSR sort gate)” value was “low polyreactivity”.
In the case of “QDQLVESGGGLVHAGGSHRFSCAASGFTFGAYAMGWSRQAPGKERELVATITNSGRTYYADSVKGRFTISRDNAKNTVYLQMNSLKPEDTAVYYCAAQPDGQAMEHWGQGTQVTVSS”, the “polyreactivity (PSR sort gate)” value is reported as “low polyreactivity”.
In the case of “QDQLVESGGGLVQAAGSLRLTCAASGLTFAYYAMGWNRQAPGKERELVAAISWNGGRTYYADSVKGRFTISRDNAKNTVYLQMNSLKPEDTAVDYCAAEVTSSFYWGQGSQVTVSS”, the “polyreactivity (PSR sort gate)” value is reported as “high polyreactivity”.
For “QDQLVESGGGLVQAGASRRLRCAASGSIFGRNTMGWYRQAPGKESELVAAISSGGRTYYADSVKGRFTISRDNAKYTVFLQMNSLKPEDTAVYYCAAALRRRRADFDYWGQGTQVTVSS”, the “polyreactivity (PSR sort gate)” value was “high polyreactivity”.
With “QDQLVESGGGLVQAGCSLRLSCAASGSTFRTYAMGWYRQAPGKERDLVAAIRRGGSTKYADSVKGRFTISRDNAKYTVYLQINSLIPEDTELYYCAAVTYVPRSTNGISLYDYWGQGTQVTVSS” the “polyreactivity (PSR sort gate)” value was “high polyreactivity”.
With “QDQLVESGGGLVQAGGILSLICAASGITFHSNDMGWYRQAPGKERELVAAISWSDDTTYYADSVKGRFTISRDNAKNTVYLQMNSLKPEDTAVYYCAAEFFGSYGYYEYDYWGQGSQVTVSS” the “polyreactivity (PSR sort gate)” value was “high polyreactivity”.
With “QDQLVESGGGLVQAGGRLRLSCAASGSIFLRNAIGWYRQAPGKERDLVAAISKSGGSTYYADSVKGRFTISRDNAKNTVYLQMNSLKPEDTAVYYCAARTTYLYGMYYWGQGTQVTVSS” the “polyreactivity (PSR sort gate)” value was “low polyreactivity”.
For “QDQLVESGGGLVQAGGRLRLSCAASVRIFWVNAMGWYRQAPGKERELVAAISWTSGSTYYADSVKGRFTISRDHANNTVYLMMNSLKPEDTAVYYCNKVQSGEYDYWGQGTQVTVSS”, the “polyreactivity (PSR sort gate)” value was “high polyreactivity”.
With “QDQLVESGGGLVQAGGSHRLSCAASGSTFGVNDMGWYRQAPGKERELVARITGGGSTYYADSVKGRFTISRDNAKNTVYLQMNSLKPEDTAVYYCNAAFWAPQATGYYYWGQGTQVTVSS” the “polyreactivity (PSR sort gate)” value was “low polyreactivity”.
With “QDQLVESGGGLVQAGGSLRISSAASGRTYKSNAMGWYRQAPGKERELVATISRGGGSTYYADSVKGRFTISRDNAKNTVYLQMNSLKPEDTAVYYCAKGSNSYLRYHYTYPYDYWGQGTQVTVSS” the “polyreactivity (PSR sort gate)” value was “high polyreactivity”.
For “QDQLVESGGGLVQAGGSLRLICAASGLIFGFYAMGWYRQAPGKERELVAAINTGGITYYADSVKGRFTISRDNAKYTVYLQMNSLKPEDTAVYYCNKDSHISTAYDYWGQGTQVTVSS”, the “polyreactivity (PSR sort gate)” value was “low polyreactivity”.
In the case of “QDQLVESGGGLVQAGGSLRLICAASGMGWFRQAPGKEREFVAVIRWSSGSTYYADSVKGRFTISRDNAKNTVYLQMNSLKPEDTAVYYCAAGGYPSLLHDYDYWGQGTQVTVSS”, the “polyreactivity (PSR sort gate)” value is reported as “low polyreactivity”.
In the case of “QDQLVESGGGLVQAGGSLRLICDASGSILWHYAMGWYRQAPGTEREWVAAITQRGGSTYYADSEKGRFTISRDTAKYNVYLQMNSLKPEDTAVYYFNTYPTRTYPSYYYWRQGTQVTVSS”, the “polyreactivity (PSR sort gate)” value is reported as “high polyreactivity”.
In the case of “QDQLVESGGGLVQAGGSLRLRCAASGLILANYAMGCYRPAPVKERELVAAISSSGGSKYYADSVKGRFTISRDNAKHTVYFQMNSLKPEDTAVYDCAAYPLYRRRWTGDYWGQGTQVTVSS”, the “polyreactivity (PSR sort gate)” value is reported as “high polyreactivity”.
